Laboratory results published in patent US6767991.

How the values were obtained:
Assay in all cases: cell-based or functional assay
[1] = molecular target: recombinant HCV NS3 protease type 1b (amino acid 1027 to 1206) (hepatitis C virus genotype 1b)
[2] = molecular target: human leukocyte elastase (human) (UniProt P08246)
[3] = molecular target: porcine pancreatic elastase (porcine) (UniProt P00772)
[4] = molecular target: recombinant NS3 protease with the NS4A peptide cofactor … (molar ratio enzyme:cofactor 1:100) (hepatitis C virus genotype 1b)
[5] = molecular target: human liver cathepsin B (human) (UniProt P07858)
[6] = molecular target: bovine pancreatic α-chymotrypsin (bovine) (UniProt P00766)

human leukocyte elastase (human), sequence (P08246 30-247 limits assumed): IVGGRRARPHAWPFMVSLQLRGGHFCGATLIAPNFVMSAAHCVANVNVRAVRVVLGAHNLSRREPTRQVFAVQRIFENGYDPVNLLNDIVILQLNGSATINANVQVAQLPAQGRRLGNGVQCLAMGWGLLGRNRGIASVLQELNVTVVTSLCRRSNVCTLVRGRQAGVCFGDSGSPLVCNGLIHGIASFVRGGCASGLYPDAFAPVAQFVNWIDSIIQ
porcine pancreatic elastase (porcine), sequence (P00772 27-266): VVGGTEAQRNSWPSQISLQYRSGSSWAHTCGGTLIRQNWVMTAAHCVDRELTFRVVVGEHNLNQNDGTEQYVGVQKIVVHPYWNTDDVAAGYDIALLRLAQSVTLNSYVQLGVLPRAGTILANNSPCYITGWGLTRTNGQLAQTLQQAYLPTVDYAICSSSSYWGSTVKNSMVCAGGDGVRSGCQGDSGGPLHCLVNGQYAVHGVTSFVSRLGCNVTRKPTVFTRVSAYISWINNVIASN

Substance | IC50 [4] [µM] | other results
Compound 110 (Table 1): Ac-Asp-Asp-Chg-Val-Pro-Cys (peptide) |  | IC50 [1]: 24 µM
Compound 114 (Table 1): Ac-Asp-Asp-Ile-Chg-Pro-Cys (peptide) |  | IC50 [1]: 50 µM
Compound 115 (Table 1): Ac-Asp-Asp-Ile-Val-Abu-Cys (peptide) |  | IC50 [1]: 58 µM
Compound 123 (Table 1): Ac-Asp-Asp-Ile-Val-Pro-Nva (peptide) | 220 | HLE [2]: > 300 µM; PPE [3]: > 300 µM
Compound 127 (Table 1): Ac-Asp-Asp-Ile-Val-Pip-Nva (peptide) |  | IC50 [1]: 605 µM
Compound 129 (Table 1): Ac-Asp-Tbg-Ile-Val-Pro-Nva (peptide) |  | IC50 [1]: 270 µM
Compound 203 (Table 2): Ac-Asp-D-Glu-Ile-Val-Pro(O-Bn)-Nva (peptide) | 0.6 | HLE [2]: > 300 µM; Other [5]: > 300 µM; PPE [3]: > 300 µM
Compound 204 (Table 2): Ac-Asp-Asp-Ile-Val-Pro(o-tolyl-methoxy)-Nva (peptide) |  | IC50 [1]: 9.4 µM
Compound 205 (Table 2): Ac-Asp-Asp-Ile-Val-Pro(m-tolyl-methoxy)-Nva (peptide) |  | IC50 [1]: 6.7 µM
Compound 206 (Table 2): Ac-Asp-Asp-Ile-Val-Pro(p-tolyl-methoxy)-Nva (peptide) |  | IC50 [1]: 6.4 µM
Compound 210 (Table 2): Ac-Asp-D-Glu-Chg-Val-Pro(O-Bn)-Cys (peptide) | 0.033 | Other [6]: > 300 µM; HLE [2]: > 300 µM; PPE [3]: > 300 µM
Compound 212 (Table 2): Ac-Asp-D-Glu-Ile-Val-Pro(O-Bn)-Acca (peptide) | 0.21 | HLE [2]: > 300 µM; PPE [3]: > 300 µM
Compound 214 (Table 2): Ac-Asp-D-Glu-Chg-Val-Pro(2-NpCH2O)-Nva (peptide) | 0.028 | Other [6]: > 300 µM; HLE [2]: > 300 µM; Other [5]: > 300 µM; PPE [3]: > 300 µM
Compound 227 (Table 2): Ac-Chg-Val-Pro(1-NpCH2O)-Acca (peptide) |  | HLE [2]: > 600 µM
Compound 231 (Table 2): Ac-Chg-Chg-Pro(1-NpCH2O)-Acca (peptide) | 2.6 | 
Compound 232 (Table 2): AcOCH2-C(O)-Chg-Chg-Pro(1-NpCH2O)-Acca (peptide) | 1.4 | 
Compound 234 (Table 2): Ac-Chg-Chg-Pro(O-Bn)-Acca (peptide) | 41 | 
Compound 235 (Table 2): Boc-Chg-Chg-Pro(1-NpCH2O)-Acca (peptide) | 12 | 
Compound 238 (Table 2): Ac-Chg-Val-Pro((4Br-Ph)O)-Acca (peptide) | 27 | HLE [2]: 195 µM
Compound 239 (Table 2): Ac-Chg-Val-Pro((2Br-Ph)O)-Acca (peptide) | 27 | 
Compound 240 (Table 2): Ac-Chg-Val-Pro((3Br-Ph)O)-Acca (peptide) | 42 | 
Compound 242 (Table 2): Ac-Chg-Val-Pro((4Br-Ph)S)-Acca (peptide) | 36 | 
Compound 249 (Table 2): Ac-Chg-Val-Pro((4I-Ph)O)-Acca (peptide) | 9.7 | 
Compound 252 (Table 2): Ac-Chg-Val-Pro(1-NpCH2O)-Nva (peptide) | 20 | 
Compound 268 (Table 2): Ac-Chg-Val-Pro((3Br-Ph)CH2O)-Acca (peptide) | 24 | 

Substance | IC50 [4] [µM] | other results
Compound 272 (Table 2): Ac-Chg-Val-Pro((3,5-Br2-Ph)CH2O)-Acca (peptide) | 27 | 
Compound 501 (Table 5): Ac-Chg-Val-Pro(OBn)-P1(R14 Et; 1R, 2R) (peptide) | 17.1 | 
Compound 502 (Table 5): Ac-Chg-Val-Pro(OBn)-P1(R14 Et; 1R, 2?) (peptide) | 12.6 | 
Compound 503 (Table 5): Ac-Chg-Chg-Pro(1-NpCH2O)-P1(R14 Et; 1R, 2?) (peptide) | 1.35 | HLE [2]: 250 µM
Compound 504 (Table 5): Ac-Chg-Chg-Pro(1-NpCH2O)-P1(R14 Et; 1R, 2?) (peptide) | 9.53 | 
Compound 505 (Table 5): Ac-Chg-Chg-Pro(1-NpCH2O)-P1(R14 Et; 1R, 2R) (peptide) | 0.55 | 
Compound 506 (Table 5): Ac-Chg-Chg-Pro(1-NpCH2O)-P1(R14 Et; 1S, 2S) (peptide) |  | HLE [2]: > 400 µM
Compound 507 (Table 5): Ac-Chg-Val-Pro(1-NpCH2O)-P1(R14 Me; 1R, 2?) (peptide) | 5.1 | 
Compound 508 (Table 5): Ac-Chg-Val-Pro(1-NpCH2O)-P1(R14 CHMe2; 1R, 2?) (peptide) | 4.15 | 
Compound 509 (Table 5): Ac-Asp-D-Glu-Chg-Chg-Pro(1-NpCH2O)-P1(R14 Et; 1R, 2R) (peptide) | 0.015 | HLE [2]: > 300 µM
Compound 510 (Table 5): Ac-Chg-Val-Pro(1-NpCH2O)-P1(R14 CH2OCH2Ph; 1R, 2?) (peptide) | 15.5 | 
Compound 511 (Table 5): Ac-Chg-Val-Pro(1-NpCH2O)-P1(R14 CH2OCH2Ph; 1R, 2?) (peptide) | 32.5 | 
Compound 512 (Table 5): Ac-Chg-Val-Pro(1-NpCH2O)-P1(R14 (CH2)2Ph; 1R, 2?) (peptide) | 19.5 | 
Compound 513 (Table 5): Ac-Chg-Val-Pro(1-NpCH2O)-P1(R14 Et; 1R, 2R) (peptide) |  | HLE [2]: > 300 µM
Compound 514 (Table 5): Ac-Chg-Val-Pro(1-NpCH2O)-P1(R14 Et; 1S, 2S) (peptide) | 27.5 | 
Compound 515 (Table 5): Ac-Chg-Val-Pro(1-NpCH2O)-P1(R14 Bz; 1R, 2?) (peptide) | 9.2 | 
Compound 516 (Table 5): Ac-Chg-Val-Pro(1-NpCH2O)-P1(R14 Bz; 1R, 2?) (peptide) | 46.5 | 
Compound 518 (Table 5): Ac-Asp-D-Glu-Chg-Val-Pro(1-NpCH2O)-P1(R14 Et; 1R, 2R) (peptide) | 0.011 | HLE [2]: > 300 µM
Compound 519 (Table 5): Ac-Chg-Val-Pro(1-NpCH2O)-P1(R14 Pr; 1R, 2?) (peptide) | 3.45 | 
Compound 520 (Table 5): Ac-Chg-Val-Pro(1-NpCH2O)-P1(R14 Pr; 1R, 2?) (peptide) | 22.5 | 
Compound 521 (Table 5): Ac-Asp-D-Val-Chg-Val-Pro(1-NpCH2O)-P1(R14 Et; 1R, 2R) (peptide) | 0.024 | HLE [2]: > 300 µM
Compound 601 (Table 6): P4 Chg, P3 Val, R13 OBn, R14 CH═CH2 (peptide) | 3.61 | 
Compound 602 (Table 6): P4 Chg, P3 Chg, R13 1-NpCH2O, R14 CH═CH2 (peptide) | 0.13 | 
Compound 603 (Table 6): P4 Chg, P3 Val, R13 1-NpCH2O, R14 CH═CH2 (peptide) | 0.36 | 
Compound 604 (Table 6): P4 Chg, P3 Val, R13 OBn, R14 CH═CHBr* (peptide) | 2.55 | 
